According to US20210270842A1 (DYAX, published 2021):
Where “and” joins values, the source holds several entries; their conditions need not be identical. Identical values can stand only once.

How the values were obtained:
[1] = target: T1, cleaved high molecular weight kininogen (HMWK) (human, UniProt P01042 19-380; P01042 390-644); assay: sandwich ELISA: Fab coated on 96-well plate, kininogen titrated, detection 11H05 + 13B12 and goat anti-mouse-HRP; value = C, midpoint of the printed 4-P fit; 2-chain HMWK spiked into SBT assay buffer
T1 construct: also called cleaved HMWK; 2-chain HMWK
T1 sequence 1: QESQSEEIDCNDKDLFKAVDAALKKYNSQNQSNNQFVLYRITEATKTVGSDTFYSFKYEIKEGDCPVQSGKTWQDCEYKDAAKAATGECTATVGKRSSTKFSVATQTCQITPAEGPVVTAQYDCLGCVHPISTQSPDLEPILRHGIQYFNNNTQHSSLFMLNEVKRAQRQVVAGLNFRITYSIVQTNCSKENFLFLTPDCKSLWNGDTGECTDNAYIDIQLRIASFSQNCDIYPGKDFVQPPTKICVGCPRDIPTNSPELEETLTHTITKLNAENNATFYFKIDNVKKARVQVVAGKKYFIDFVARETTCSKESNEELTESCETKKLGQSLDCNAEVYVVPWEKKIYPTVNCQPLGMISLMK
T1 sequence 2: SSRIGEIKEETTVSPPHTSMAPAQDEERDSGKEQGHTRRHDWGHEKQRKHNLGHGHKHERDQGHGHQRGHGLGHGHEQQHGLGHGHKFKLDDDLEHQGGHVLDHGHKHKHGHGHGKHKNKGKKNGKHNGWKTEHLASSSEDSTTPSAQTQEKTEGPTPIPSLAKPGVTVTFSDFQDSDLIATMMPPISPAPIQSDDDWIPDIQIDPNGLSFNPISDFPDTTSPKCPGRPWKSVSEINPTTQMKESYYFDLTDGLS
Source text: (§1) Purified cleaved HMWK was spiked into SBT assay buffer (circles) or HMWK-deficient plasma (squares). Purified intact HMWK was spiked into SBT assay buffer (triangles). Purified LMWK was spiked into SBT assay buffer (diamonds). The y-axis presents the ELISA signal in absorbance units, and the x-axis presents the concentration of kininogen in μg/mL.
(§2) The following day, the plate was washed and then blocked with 2% BSA (Protease/IgG free) in PBS buffer. Following a wash, samples containing cleaved HMWK in 0.1% BSA buffer in PBS with 0.05% Tween-20 (2-Chain HMWK assay buffer). Purified protein standards (e.g., 2-chain HMWK, intact HMWK or LMWK) were spiked into HMWK-deficient plasma and diluted 1:320 in 2-chain HMWK assay buffer. Following plate washing with PBST, a mixture of 2 mouse monoclonal antibodies (11H05 and 13B12) at 1 μg/mL in 2-chain HMWK assay buffer were added for 1 hour at room temperature. Unbound detection antibodies were washed and a 1:2000 dilution of goat anti-mouse secondary antibody conjugated to horseradish peroxidase (HRP) was added. […] Signal was detected by the addition of 3,3′,5,5′-tetramethylbenzidine (TMB), an HRP substrate. […] Hydrolysis of a TMB substrate was detected using a microplate reader at 450 nm-630 nm (FIG. 3). […] Using these immunoassay conditions, specifically binding to cleaved HMWK was detected.

[2] = target: T1, cleaved high molecular weight kininogen …; assay: ELISA on coated M004-B04, 2-chain HMWK titrated after preincubation of the plate with competitor HKH20 peptide at 250 µg/mL; value = C of the printed 4-P fit; squares, right-shifted curve (the callout box on the graph names this curve GCP28: see recheck)
Experimental: Following plate washing with PBST, a mixture of 2 mouse monoclonal antibodies (11H05 and 13B12) at 1 μg/mL in 2-chain HMWK assay buffer were added for 1 hour at room temperature. Unbound detection antibodies were washed and a 1:2000 dilution of goat anti-mouse secondary antibody conjugated to horseradish peroxidase (HRP) was added. The assay containing the secondary antibody was incubated for 1 hour at room temperature, and unbound secondary antibody was removed by washing with 2-chain HMWK assay buffer. Signal was detected by the addition of 3,3′,5,5′-tetramethylbenzidine (TMB), an HRP substrate. The reaction was stopped with phosphoric acid. Hydrolysis of a TMB substrate was detected using a microplate reader at 450 nm-630 nm (FIG. 3). […] Using these immunoassay conditions, specifically binding to cleaved HMWK was detected.
To perform the assay, the kininogen peptides were diluted to 250 μg/mL and allowed to preincubate on assay plate. Then, purified 2-chain HMWK in deficient human plasma was diluted 160 and then added to plate.

[3] = target: T1, cleaved high molecular weight kininogen …; assay: sandwich ELISA with coated Fab; value = C, midpoint of the printed 4-P fit; 2-chain HMWK spiked into SBT buffer, analysed in 10% plasma
Source text: (§3) Purified cleaved HMWK was spiked into SBT assay buffer (open circles), SBT assay buffer and analyzed in the presence of 10% plasma (squares), or HMWK-deficient plasma and analyzed in the presence of 10% plasma (triangles). Purified cleaved HMWK was also spiked into assay buffer and analyzed in the presence of 2.5% plasma (diamonds) or HMWK deficient plasma and analyzed in the presence of 2.5% plasma (closed circles). The y-axis presents the ELISA signal in absorbance units, and the x-axis presents the concentration of kininogen in μg/mL.
as §2, with “temperature.” for “temperature. Unbound detection antibodies were washed and a 1:2000 dilution of goat anti-mouse secondary antibody conjugated to horseradish peroxidase (HRP) was added.”

[4] = target: T1, cleaved high molecular weight kininogen …; assay: sandwich ELISA with coated Fab; value = C, midpoint of the printed 4-P fit; 2-chain HMWK spiked into HMWK-deficient plasma, analysed in 10% plasma
Source text: as §3
as §2, with “temperature.” for “temperature. Unbound detection antibodies were washed and a 1:2000 dilution of goat anti-mouse secondary antibody conjugated to horseradish peroxidase (HRP) was added.”

[5] = target: T1, cleaved high molecular weight kininogen …; assay: optimized sandwich ELISA: M004-B04 capture, detection 11H05 + 13B12; value = C, midpoint of the printed 4-P fit; in-well concentration
Experimental: The following day, the plate was washed and then blocked with 2% BSA (Protease/IgG free) in PBS buffer. Following a wash, samples containing cleaved HMWK in 0.1% BSA buffer in PBS with 0.05% Tween-20 (2-Chain HMWK assay buffer). Purified protein standards (e.g., 2-chain HMWK, intact HMWK or LMWK) were spiked into HMWK-deficient plasma and diluted 1:320 in 2-chain HMWK assay buffer. Following plate washing with PBST, a mixture of 2 mouse monoclonal antibodies (11H05 and 13B12) at 1 μg/mL in 2-chain HMWK assay buffer were added for 1 hour at room temperature. Unbound detection antibodies were washed and a 1:2000 dilution of goat anti-mouse secondary antibody conjugated to horseradish peroxidase (HRP) was added. The assay containing the secondary antibody was incubated for 1 hour at room temperature, and unbound secondary antibody was removed by washing with 2-chain HMWK assay buffer. Signal was detected by the addition of 3,3′,5,5′-tetramethylbenzidine (TMB), an HRP substrate. The reaction was stopped with phosphoric acid. Hydrolysis of a TMB substrate was detected using a microplate reader at 450 nm-630 nm (FIG. 3). […] Using these immunoassay conditions, specifically binding to cleaved HMWK was detected.

[6] = target: T1, cleaved high molecular weight kininogen …; assay: sandwich ELISA: Fab coated on 96-well plate, kininogen titrated, detection 11H05 + 13B12 and goat anti-mouse-HRP; value = C, midpoint of the printed 4-P fit; 2-chain HMWK spiked into HMWK-deficient plasma
Source text: as §1, §2

[7] = target: T1, cleaved high molecular weight kininogen …; assay: sandwich ELISA with coated Fab; value = C, midpoint of the printed 4-P fit; 2-chain HMWK spiked into SBT assay buffer
Source text: as §3
as §2, with “temperature.” for “temperature. Unbound detection antibodies were washed and a 1:2000 dilution of goat anti-mouse secondary antibody conjugated to horseradish peroxidase (HRP) was added.”

EC50 [1]: 235 µg/mL | EC50 [2]: 0.0375 µg/mL | EC50 [3]: 184 µg/mL | EC50 [4]: 165 µg/mL | EC50 [5]: 0.00902 µg/mL and 0.0207 µg/mL and 0.0116 µg/mL | EC50 [6]: 247 µg/mL | EC50 [7]: 226 µg/mL
B1: 559B-M0004-B04 (Fab, V domains shown)
VH: EVQLLESGGGLVQPGGSLRLSCAASGFTFSFYVMVWVRQAPGKGLEWVSGISPSGGNTAYADSVKGRFTISRDNSKNTLYLQMNSLRAEDTAVYYCARKLFYYDDTKGYFDFWGQGTLVTVSS
VL: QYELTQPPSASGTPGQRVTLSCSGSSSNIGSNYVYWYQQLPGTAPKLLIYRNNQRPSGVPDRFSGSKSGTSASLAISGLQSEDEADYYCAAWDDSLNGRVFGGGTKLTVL
notes: also called M004-B04
